Data: article PMC8982864 (PLoS Biology, 2022)
Substitutions are numbered along the chain they refer to. Names and notes keep the numbering of the source.

B1: CSPG4 domain 1 fragment D1_(401-560) with C-terminal GFP tag (domain or fragment, UniProt Q6UVK1 401-560, looked up)
chain: LAPEAWPAMELPEPCVPEPGLPPVFANFTQLLTISPLVVAEGGTAWLEWRHVQPTLDLMEAELRKSQVLFSVTRGARHGELELDIPGAQARKMFTLLDVVNRKARFIHDGSEDTSDQLVLEVSVTARVPMPSCLRRGQTYLLPIQVNPVNDPPHIIFPHG
notes: not shown: GFP, C-terminal, kept
B2: D1_(401-560) E460A, C-terminal GFP tag (domain or fragment)
chain: B1 chain with E60A
notes: as for B1
B3: D1_(401-560) D457A, C-terminal GFP tag (domain or fragment)
chain: B1 chain with D57A
notes: as for B1

Tests used:
Test in all cases: ELISA
[1] = target: CSPG4 domain 1 fragment D1_(401-560) with C-terminal GFP tag (UniProt Q6UVK1)
[2] = target: truncated wild-type TcdB (residues 550-1902) (Clostridioides difficile (VPI 10463 …, UniProt P18177 550-1902)); settings: both partners purified
[3] = target: full-length Clostridioides difficile Toxin B (TcdB), C-terminal 6XHis-tag (Clostridioides difficile (VPI 10463 …, UniProt P18177 1-2366)); settings: both partners purified

| Molecule | binding result [3] | other results |
| --- | --- | --- |
| truncated TcdB (550-1902) [change] (from UniProt P18177 550-1902) (domain or fragment) |  | fold reduction of binding against wild type [1]: 1 fold |
| B1 |  | binding result [2]: binds |
| B2 | binds |  |
| B3 | binds |  |
